# B1: mDNAM1-Ig (extracellular portion of mouse DNAM1 fused to the Fc portion of human IgG1) (Fc fusion)
# chain: EETLWDTTVRLSETMTLECVYPLTHNLTQVEWTKNTGTKTVSIAVYNPNHNMHIESNYLHRVHFLNSTVGFRNMSLSFYNASEADIGIYSCLFHAFPNGPWEKKIKVVWSDSFEIAAPSDSYLSAEPGQDVTLTCQLPRTWPVQQVIWEKVQPHQVDILASCNLSQETRYTSKYLRQTRSNCSQGSMKSILIIPNAMAADSGLYRCRSEAITGKNKSFVIRLIITDGGTNKHFILP
# Molecular target: mPVR-Ig (extracellular portion of mouse PVR fused to the Fc portion of human IgG1) (mouse)
# Test: SPR
binder,measurement,value
B1,Kd,5.16 µM
same,koff,0.00259 s⁻¹
same,kon,502 M⁻¹ s⁻¹

# From PMC3863769
